Test results as given in paper PMC1764712, “Recruitment and Activation of RSK2 by HIV-1 Tat” (PLoS ONE, 2007).

B1: GST-Tat 1–86 (natural protein)
chain: MEPVDPRLEPWKHPGSQPKTACTNCYCKKCCFHCQVCFITKALGISYGRKKRRQRRRAHQNSQTHQASLSKQPTSQPRGDPTGPKE
notes: HIV-1 Tat amino acids 1-86; also called GST-Tat (amino acids 1–86); recombinant Tat (amino acids 1–86) fused to the C-terminus of GST; source: E. coli BL21, purified (glutathione-sepharose); not shown: GST, N-terminal, kept

Tests used:
[1] = molecular target: Endogenous RSK2 of Cos7 cells (African green monkey (endogenous in Cos7))
[2] = molecular target: T1, Full-length human recombinant RSK2 isolated from insect cells (human, UniProt P51812 1-740); assay: pull-down; GST proteins immobilised on glutathione-sepharose, incubated with 200 ng human recombinant RSK2; binding buffer 20 mM Hepes pH 7.9, 1% Triton, 0.5% NP-40, 200 mM KCl; washes with 1 M KCl; western blot with α-RSK2; details: both partners purified
T1 construct: Human ribosomal S6 protein kinase 2 (RSK2), full length; also called full-length recombinant RSK2; source: bought: Upstate Biotechnology (isolated from insect cells)
T1 sequence (P51812 whole entry): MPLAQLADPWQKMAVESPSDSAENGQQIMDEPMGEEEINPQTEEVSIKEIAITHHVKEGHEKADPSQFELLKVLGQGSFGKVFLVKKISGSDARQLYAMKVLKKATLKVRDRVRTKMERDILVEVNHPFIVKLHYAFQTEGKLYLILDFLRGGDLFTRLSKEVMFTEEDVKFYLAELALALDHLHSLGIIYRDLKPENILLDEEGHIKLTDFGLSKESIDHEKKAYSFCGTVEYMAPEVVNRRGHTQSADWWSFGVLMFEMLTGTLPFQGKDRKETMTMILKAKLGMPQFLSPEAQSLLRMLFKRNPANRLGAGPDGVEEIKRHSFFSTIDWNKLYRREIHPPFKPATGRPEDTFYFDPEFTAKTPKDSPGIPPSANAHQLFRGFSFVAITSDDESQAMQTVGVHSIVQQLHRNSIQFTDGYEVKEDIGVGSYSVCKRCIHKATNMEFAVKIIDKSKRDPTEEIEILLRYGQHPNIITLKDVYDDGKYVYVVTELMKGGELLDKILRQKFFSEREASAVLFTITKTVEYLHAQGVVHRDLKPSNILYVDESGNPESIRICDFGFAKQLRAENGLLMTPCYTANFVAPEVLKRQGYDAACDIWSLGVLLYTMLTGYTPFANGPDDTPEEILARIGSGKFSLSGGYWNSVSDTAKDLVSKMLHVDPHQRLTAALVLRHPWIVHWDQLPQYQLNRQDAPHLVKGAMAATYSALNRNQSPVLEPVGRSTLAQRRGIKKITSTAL

Row | Molecule | S6 peptide phosphorylation assay of endogenous RSK2 immunoprecipitated from Cos7 cells transfected with Tat [1] | binding result [2]
1 | Full-length Tat (101 amino acids) bearing a C-terminal FLAG tag (natural protein) | 3 fold | –
2 | B1 | – | binds
